Tests used:
[1] = target: BChE/hSA fusion protein (recombinant human butyrylcholinesterase fused to human serum albumin) in the milk of transgenic goats (human) (UniProt P06276); test: SEC + native gel or EMSA
[2] = target: BChE/hSA fusion protein (recombinant human butyrylcholinesterase fused to human serum albumin) in the milk of transgenic mice (human) (UniProt P06276); test: SEC + native gel or EMSA
SEC = target: the molecule itself; test: SEC

With “BChE/hSA fusion protein (recombinant human butyrylcholinesterase fused to human serum albumin) in the milk of transgenic goats (from UniProt P06276 29-602; P02768 25-609) (enzyme)” the stoichiometry N [1] was 2.

“BChE/hSA fusion protein (recombinant human butyrylcholinesterase fused to human serum albumin) in the milk of transgenic mice (from UniProt P06276 29-602; P02768 25-609) (enzyme)” was tested, and the stoichiometry N [2] was 2.

B1: recombinant human butyrylcholinesterase produced transgenically in goat milk, tetramer-enriched preparation (>70% tetramer) (enzyme, UniProt P06276 29-602, looked up)
chain: EDDIIIATKNGKVRGMNLTVFGGTVTAFLGIPYAQPPLGRLRFKKPQSLTKWSDIWNATKYANSCCQNIDQSFPGFHGSEMWNPNTDLSEDCLYLNVWIPAPKPKNATVLIWIYGGGFQTGTSSLHVYDGKFLARVERVIVVSMNYRVGALGFLALPGNPEAPGNMGLFDQQLALQWVQKNIAAFGGNPKSVTLFGESAGAASVSLHLLSPGSHSLFTRAILQSGSFNAPWAVTSLYEARNRTLNLAKLTGCSRENETEIIKCLRNKDPQEILLNEAFVVPYGTPLSVNFGPTVDGDFLTDMPDILLELGQFKKTQILVGVNKDEGTAFLVYGAPGFSKDNNSIITRKEFQEGLKIFFPGVSEFGKESILFHYTDWVDDQRPENYREALGDVVGDYNFICPALEFTKKFSEWGNNAFFYYFEHRSSKLPWPEWMGVMHGYEIEFVFGLPLERRDNYTKAEEILSRSIVKRWANFAKYGNPNETQNNSTSWPVFKSTEQKYLTLNTESTRIMTKLRAQQCRFWTSFFPKVLEMTGNIDEAEWEWKAGFHRWNNYMMDWKNQFNDYTSKKESCVGL
notes: also called tetramer-enriched BChE; BChE produced transgenically (>70% tetramer)
With B1 the “stoichiometry N” value (SEC) was 4.

From PMC2415180 (BMC Biotechnology, 2008)
